Assay results: patent publication US20230312724A1 (KADMON, published 2023)

T1: mouse B7-H4-his (mouse, UniProt Q7TSP5 25-257)
T1 construct: also called mB7-H4-his; mB7-H4-His; not shown: his tag
T1 sequence: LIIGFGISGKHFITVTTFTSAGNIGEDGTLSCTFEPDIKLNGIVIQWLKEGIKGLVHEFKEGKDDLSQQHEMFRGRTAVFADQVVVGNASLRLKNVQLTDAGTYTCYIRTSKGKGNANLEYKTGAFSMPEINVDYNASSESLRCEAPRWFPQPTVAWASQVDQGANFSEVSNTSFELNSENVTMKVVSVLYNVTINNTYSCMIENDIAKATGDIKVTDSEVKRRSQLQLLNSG

T2: human B7-H4-his (human, UniProt Q7Z7D3 25-259)
T2 construct: also called hB7-H4-his; hB7-H4 his; not shown: his tag
T2 sequence: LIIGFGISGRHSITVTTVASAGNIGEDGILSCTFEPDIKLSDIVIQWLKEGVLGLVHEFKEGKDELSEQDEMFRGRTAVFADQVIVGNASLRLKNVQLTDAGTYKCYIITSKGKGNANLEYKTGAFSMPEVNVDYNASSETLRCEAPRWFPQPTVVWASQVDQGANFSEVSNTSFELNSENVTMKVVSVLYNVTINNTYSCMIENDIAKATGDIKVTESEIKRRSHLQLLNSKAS

T3: mB7-H4 (soluble mouse B7-H4, construct not named) (mouse, UniProt Q7TSP5 25-257, limits assumed)
T3 sequence: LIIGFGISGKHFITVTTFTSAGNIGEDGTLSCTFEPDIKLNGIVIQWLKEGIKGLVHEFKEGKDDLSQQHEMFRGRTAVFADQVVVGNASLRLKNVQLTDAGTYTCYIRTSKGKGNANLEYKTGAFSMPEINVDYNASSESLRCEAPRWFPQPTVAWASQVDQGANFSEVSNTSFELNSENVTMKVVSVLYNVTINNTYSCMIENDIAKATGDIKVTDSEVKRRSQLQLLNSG

T4: mouse B7-H4 expressed on cells (mouse, UniProt Q7TSP5 25-257)
T4 construct: also called cellular mB7-H4; mB7-H4/CT26
T4 sequence: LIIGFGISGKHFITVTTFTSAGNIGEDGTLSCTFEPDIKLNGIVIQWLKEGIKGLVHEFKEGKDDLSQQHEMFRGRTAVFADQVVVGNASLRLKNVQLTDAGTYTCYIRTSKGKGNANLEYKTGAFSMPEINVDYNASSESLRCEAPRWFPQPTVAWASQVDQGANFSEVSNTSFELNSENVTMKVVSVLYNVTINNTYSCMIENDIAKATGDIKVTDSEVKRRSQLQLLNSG

B1: 3D1/3D1 (antibody, human IgG1, V domains shown)
VH: QVQLVQSGAEVKKPGSSVKVSCKASGYSFISYAITWVRQAPGQGLEWIGGINPIFGTAKYAQKFQGRVTITADESTSTAYMELSSLRSEDTAVYYCAKGQALIQHWGQGTLVTVSS
VL: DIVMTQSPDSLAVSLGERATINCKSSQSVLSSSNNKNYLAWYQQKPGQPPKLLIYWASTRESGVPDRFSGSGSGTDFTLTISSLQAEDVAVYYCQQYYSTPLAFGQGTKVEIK
B2: 1A12/1A12 (antibody, human IgG1, V domains shown)
VH: EVQLLESGGGLVKPGGSLRLSCAASGFTFSSYAMHWVRQAPGKGLEWVAVISYDGSNKYYADSVKGRFTISRDDSKNTLYLQMNSLKTEDTAVYYCARHGWDAFDIWGQGTLVTVSS
VL: DIQMTQSPSSLSASVGDRVTITCRASQDISNRLNWYQQKPGKAPKLLIYLASSLQGGVPSRFSGSGSGTDFTLTISSLQPEDFATYYCQQAISFPLTFGGGTKVEIK
B3: 1F11/1F11 (antibody, human IgG1, V domains shown)
VH: QVQLVQSGAEVKKPGSSVKVSCKASGDTFTTYQIHWVRQAPGQGLEWMGGIMPIFGTTKYAQNFQGRVTITADESTSTAYMELSSLRSEDTAVYYCARRNYGMDVWGQGTTVTVSS
VL: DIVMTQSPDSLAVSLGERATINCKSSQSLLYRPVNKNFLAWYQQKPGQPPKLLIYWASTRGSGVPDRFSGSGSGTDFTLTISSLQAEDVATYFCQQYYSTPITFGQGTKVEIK

Tests used:
[1] = target: T5, human B7-H4-Fc (human); assay: SPR (Biacore)
T5 construct: also called hB7-H4-Fc; hB7-H4 Fc
T5 sequence (chain, as listed by the source): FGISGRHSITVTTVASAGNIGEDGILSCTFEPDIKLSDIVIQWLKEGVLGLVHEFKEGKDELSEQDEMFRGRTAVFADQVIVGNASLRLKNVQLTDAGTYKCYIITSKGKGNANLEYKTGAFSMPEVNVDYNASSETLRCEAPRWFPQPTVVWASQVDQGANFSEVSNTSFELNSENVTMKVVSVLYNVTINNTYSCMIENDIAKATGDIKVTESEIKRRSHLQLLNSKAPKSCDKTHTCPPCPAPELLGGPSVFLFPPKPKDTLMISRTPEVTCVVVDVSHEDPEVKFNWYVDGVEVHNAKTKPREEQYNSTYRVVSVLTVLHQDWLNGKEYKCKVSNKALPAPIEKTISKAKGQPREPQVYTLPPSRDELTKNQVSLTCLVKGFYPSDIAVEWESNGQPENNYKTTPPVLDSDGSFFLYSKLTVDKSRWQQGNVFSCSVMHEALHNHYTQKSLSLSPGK
Description: (§1) Surface plasmon resonance experiments were performed using a Biacore T200 instrument equipped with CM5 sensor chips. The system was equilibrated in running buffer HBS-EP pH 7.4. The ligands were immobilized using amine-coupling chemistry. The surfaces of flow cells one through four were activated for 5 min using an amine coupling kit at a flow rate of […]. The ligands (human B7-H4-Fc, human B7-H4-hism and mouse B7-H4-Fc; at a concentration of 5 μg/ml in 10 mM sodium acetate, pH 5.0) were immobilized at a density of 50-100 RU on flow cell 2, 3, 4 respectively. Flow cell 1 was left blank to serve as a reference surface. All flow cell surfaces were blocked with a 5 min injection of 1 M ethanolamine, pH 8.0. To collect kinetic binding data, the respective analyte (diluted in 1×HBS-EP buffer, pH 7.4) was injected over the four flow cells at concentrations of 100 nM to 0.1 nM at a flow rate of […] and at a temperature of 25° C. The protein complex was allowed to associate and dissociate for 180 seconds and 1000 or 1200 seconds, respectively. The surfaces were regenerated with a 30 second injection of 1.5 M NaCl/0.05 M NaOH. The data were fit to a simple 1:1 interaction model using the Langmuir fit option available within the Biaevaluaton software
(§2) The kinetics for binding of the different antibodies to their targets were examined using Biacore analysis.

[2] = target: T1, mouse B7-H4-his; assay: SPR (Biacore)
Description: as §1, §2

[3] = target: T2, human B7-H4-his; assay: SPR (Biacore)
Description: as §1, §2

[4] = target: T3, mB7-H4 (soluble mouse B7-H4, construct …); assay: summary of ELISA and flow cytometry
[5] = target: T6, mouse B7-H4-Fc (mouse; human); assay: ELISA, coated mB7-H4-Fc (title on the sheet: Binding to mB7H4-Fc)
T6 construct: also called mB7-H4-Fc; mB7-H4-hFc
T6 sequence (chain, as listed by the source): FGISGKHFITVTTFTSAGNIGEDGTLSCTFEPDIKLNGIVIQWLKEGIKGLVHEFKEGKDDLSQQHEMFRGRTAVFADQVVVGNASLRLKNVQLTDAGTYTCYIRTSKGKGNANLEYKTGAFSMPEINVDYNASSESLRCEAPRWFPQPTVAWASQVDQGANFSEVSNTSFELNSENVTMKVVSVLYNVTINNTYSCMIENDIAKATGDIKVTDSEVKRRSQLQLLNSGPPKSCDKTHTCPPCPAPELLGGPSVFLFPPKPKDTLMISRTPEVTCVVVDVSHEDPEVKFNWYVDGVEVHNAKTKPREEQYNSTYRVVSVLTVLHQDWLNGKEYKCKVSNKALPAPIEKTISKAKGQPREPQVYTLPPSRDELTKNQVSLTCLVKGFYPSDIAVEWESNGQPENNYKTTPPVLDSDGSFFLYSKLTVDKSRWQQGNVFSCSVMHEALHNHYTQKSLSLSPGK
Description: (§3) ELISA experiments were performed to determine binding to hB7-H4-Fc (FIG. 4A), hB7-H4-his (FIG. 4B), hB7-H4 IgV domain (FIG. 4C), and mB7-H4 IgV domain (FIG. 4D). Flow cytrometry experiments were performed to determine binding to CHO cells expressing hB7-H4 (FIG. 4E) or mB7-H4 (FIG. 4F). […] A cross-reactive IgV binding antibody was used as a control.
(§4) About 1-2 μg/ml of human or mouse B7-H4-Fc (or his-tagged) was immobilized on ELISA plates (Immuno 2HB, Thermo scientific, cat #3455) at 4° C. overnight. After blocking the plates with 3% PBS+milk, serial diluted antibodies were added to the blocked plates and incubated at RT for 1-1.5 h. After washing the plates with PBS-T (0.05%), horse radish peroxidase (HRP)-conjugated antibody targeting the hFab was added to the plate. Signals were developed by adding 3,3′,5,5′-Tetramethylbenzidine (TMB (followed 1N of H₂SO₄ to stop the reaction. The OD at 450 nm was read by ELISA plate reader (Infinite M1000 from TECAN). GraphPad from Prism was used to plot OD450 vs. antibody concentration curve and to calculate the EC50 values.

[6] = target: T5, human B7-H4-Fc; assay: ELISA, coated hB7-H4-Fc
Description: as §3, §4

[7] = target: T7, IgV domain of mouse B7-H4-Fc (mouse; human); assay: ELISA, coated mB7-H4 IgV domain
T7 construct: also called mB7-H4 IgV domain
T7 sequence (chain, as listed by the source): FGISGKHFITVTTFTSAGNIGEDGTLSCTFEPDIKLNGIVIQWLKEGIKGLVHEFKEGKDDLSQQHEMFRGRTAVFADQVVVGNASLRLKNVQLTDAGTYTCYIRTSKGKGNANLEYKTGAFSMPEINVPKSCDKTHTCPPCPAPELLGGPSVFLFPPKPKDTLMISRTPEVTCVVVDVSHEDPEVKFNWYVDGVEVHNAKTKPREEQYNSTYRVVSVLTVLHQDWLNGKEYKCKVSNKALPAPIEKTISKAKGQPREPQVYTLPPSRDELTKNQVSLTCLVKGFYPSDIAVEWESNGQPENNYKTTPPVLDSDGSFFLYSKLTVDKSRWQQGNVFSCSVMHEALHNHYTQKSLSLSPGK
Description: as §3, §4

[8] = target: T6, mouse B7-H4-Fc; assay: ELISA, coated mB7-H4-Fc
Description: (§5) ELISA experiments were performed to determine binding to hB7-H4-Fc (FIG. 3A), hB7-H4-his (FIG. 3B), mB7-H4-Fc (FIG. 3C), and hB7-H4 IgV domain (FIG. 3D). Flow cytometry experiments were performed to determine binding to CHO cells expressing hB7-H4 (FIG. 3E) or mB7-H4 (FIG. 3F).
as §4

[9] = target: T4, mouse B7-H4 expressed on cells; assay: flow cytometry, CHO cells expressing mB7-H4
Description: as §5
Cells were harvested, washed once, and then re-suspended to the concentration of 1×10⁶ cells/ml in ice cold FACS Buffer. 25 μl of cell suspension was added to each well of a 96-well round-bottom microliter plate. Serially diluted antibodies or fusion proteins were added to each well and incubated for 1 hour at 4° C. Cells were washed three times by centrifugation at 1500 rpm for 5 minutes, and then stained with secondary antibody (1:200 dilution) for 30 min at 4° C. in the dark. Cells were washed once, re-suspended in 100 μl PBS buffer and then analyzed using Guava Flow Cytometry EasyCyte system.

Binder | Kd [1] | binding result [2] | Kd [3] | binding result [4] | binding result [5] | EC50 (read off the curve) [6] | binding result [7] | binding result [8] | binding result [9]
B1 | 2.23 nM | no binding | 28.5 nM | no binding | no binding (tested: log 0.3 ug/ml (about 2 ug/ml)) | ~9 ng/mL | no binding | – | –
B2 | 3.57 nM | no binding | 2.47 nM | no binding | – | – | – | no binding (tested: axis value -8 (log scale labelled nM)) | no binding (tested: axis value -7 (log scale labelled nM))
B3 | 1.66 nM | no binding | 1.11 nM | no binding | – | – | – | no binding (tested: axis value -8 (log scale labelled nM)) | no binding (tested: axis value -7 (log scale labelled nM))
